Data from the supplement of paper PMC7877785.
± gives the uncertainty stated by the source.

Experiment: self-splicing fitness, log relative to wild type (ln ratio); higher = more splicing; Tetrahymena group I intron in knt gene, E. coli kanamycin selection, DiMSum; sequences stand for … in CUCUCU…GGAGGGAAAAGUUAUCAGGCAUGCACCUGGUAGCUAGUCUUUAAACCAAUAGAUUGCAUCGGUUUAAAAGGCAAGACCGUCAAAUUGCGGGAAAGGGGUCAACAGCCGUUCAGUACCAAGUCUCAGGGGAAACUUUGAGAUGGCCUUGCAAAGGGUAUGGUAAUAAGCUGACGGACAUGGUCCUAACCACGCAGCCAAGUCCUAAGUCAACAGAUCUUCUGUUGAUAUGGAUGCAGUUCACAGACUAAAUGUCGGUCGGGGAAGAUGUAUUCUUCUCAUAAGAUAUAGUCGGACCUCUCCUUAAUGGGAGCUAGCGGAUGAAGUGAUGCAACACUGGAGCCGCUGGGAACUAAUUUGUAUGCGAAAGUAUAUUGAUUAGUUUUGGAGUACUCGUGGUCG
Summary of the method: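 Colonies from six replicate transformations of E. coli BL21(DE3) were pooled and amplicon-sequenced on an Illumina HiSeq 2500. The library placed an intron with all eight P1ex-region nucleotides randomised inside the knt kanamycin-resistance gene on pET-22b(+), and cells grew overnight at 37°C or 30°C on LB agar with or without 25 μg/mL kanamycin (plus 100 μg/mL carbenicillin, 50 μM IPTG, 0.2% rhamnose). Fitness is the DiMSum error-weighted combination of wild-type-normalised replicate fold changes, kanamycin versus none.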

Sequence	self-splicing fitness (ln) (30 °C)	self-splicing fitness (ln) (37 °C)
GGUGAGCAAUAUUACGUCAC	-3.1 ± 0.34	–
GGUGAGCAAUAUUACGUCUC	-1.28 ± 0.19	-1.61 ± 0.22
GGUGAGCAAUAUUACGUCUU	-0.609 ± 0.2	0.239 ± 0.25
GGUGAGCAAUAUUACGUGGA	-2.86 ± 0.36	-3.3 ± 0.28
GGUGAGCAAUAUUACGUUCG	-2.65 ± 0.37	-2.44 ± 0.32
GGUGAGCAAUAUUACGUUUU	-2.94 ± 0.26	-1.6 ± 0.23
GGUUAGCAAUAUUACGAAAU	-1.45 ± 0.11	-0.492 ± 0.14
GGUUAGCAAUAUUACGACAA	0.354 ± 0.25	0.974 ± 0.3
GGUUAGCAAUAUUACGACCG	-0.946 ± 0.25	1.43 ± 0.36
GGUUAGCAAUAUUACGCAGG	-3.31 ± 0.24	-2.05 ± 0.2
GGUUAGCAAUAUUACGCAUU	-0.941 ± 0.075	-0.185 ± 0.086
GGUUAGCAAUAUUACGCGAA	-0.818 ± 0.25	-0.0649 ± 0.35
GGUUAGCAAUAUUACGGAAC	-1.48 ± 0.3	-0.799 ± 0.46
GGUUAGCAAUAUUACGGAUA	-1.23 ± 0.14	0.704 ± 0.17
GGUUAGCAAUAUUACGGAUC	-1.53 ± 0.18	0.131 ± 0.28
GGUUAGCAAUAUUACGGCGG	-2.05 ± 0.15	-1.68 ± 0.16
GGUUAGCAAUAUUACGGGAC	-3 ± 0.3	-1.44 ± 0.21
GGUUAGCAAUAUUACGGGGG	–	-2.37 ± 0.44
GGUUAGCAAUAUUACGGUCG	-0.323 ± 0.13	-0.0539 ± 0.18

Sequence	self-splicing fitness (ln) (30 °C)	self-splicing fitness (ln) (37 °C)
GGUUAGCAAUAUUACGUAAU	-2.05 ± 0.22	-0.725 ± 0.21
GGUUAGCAAUAUUACGUCAU	-1.03 ± 0.21	0.277 ± 0.21
GGUUAGCAAUAUUACGUCCA	-1.17 ± 0.3	-0.199 ± 0.34
GGUUAGCAAUAUUACGUGAC	-2.98 ± 0.28	-2.33 ± 0.34
GGUUAGCAAUAUUACGUGCU	-2.76 ± 0.46	-2.35 ± 0.3
GGUUAGCAAUAUUACGUGUU	-1.43 ± 0.096	-0.323 ± 0.098
GUAAAGCAAUAUUACGACCA	-0.123 ± 0.093	0.27 ± 0.13
GUAAAGCAAUAUUACGACGG	-3.85 ± 0.29	-2.28 ± 0.23
GUAAAGCAAUAUUACGACUC	0.441 ± 0.1	1.06 ± 0.15
GUAAAGCAAUAUUACGAUCU	0.147 ± 0.057	0.161 ± 0.069
GUAAAGCAAUAUUACGAUUA	0.307 ± 0.087	0.518 ± 0.1
GUAAAGCAAUAUUACGCCUA	-0.413 ± 0.14	0.493 ± 0.19
GUAAAGCAAUAUUACGCGCA	0.459 ± 0.16	-0.0064 ± 0.17
GUAAAGCAAUAUUACGCGCG	-0.817 ± 0.14	-0.615 ± 0.24
GUAAAGCAAUAUUACGCGUU	-1.65 ± 0.088	-0.906 ± 0.099
GUAAAGCAAUAUUACGGCGC	0.572 ± 0.13	-0.000459 ± 0.14
GUAAAGCAAUAUUACGGCUA	0.4 ± 0.052	0.518 ± 0.075
GUAAAGCAAUAUUACGGGUC	-1.78 ± 0.1	-2.99 ± 0.12
GUAAAGCAAUAUUACGUAUU	-1.87 ± 0.076	-1.69 ± 0.1
